The labels stand for the following.
T1: recombinant FAP protein (BioLegend), biotinylated (Homo sapiens (Human), UniProt Q12884 26-760, Biotinylated (sites not given) for loading on streptavidin sensors. Any vendor tag is not stated in the passages shown.)
T1 construct: Loaded on streptavidin sensors for BLI; also called biotinylated FAP
T1 sequence: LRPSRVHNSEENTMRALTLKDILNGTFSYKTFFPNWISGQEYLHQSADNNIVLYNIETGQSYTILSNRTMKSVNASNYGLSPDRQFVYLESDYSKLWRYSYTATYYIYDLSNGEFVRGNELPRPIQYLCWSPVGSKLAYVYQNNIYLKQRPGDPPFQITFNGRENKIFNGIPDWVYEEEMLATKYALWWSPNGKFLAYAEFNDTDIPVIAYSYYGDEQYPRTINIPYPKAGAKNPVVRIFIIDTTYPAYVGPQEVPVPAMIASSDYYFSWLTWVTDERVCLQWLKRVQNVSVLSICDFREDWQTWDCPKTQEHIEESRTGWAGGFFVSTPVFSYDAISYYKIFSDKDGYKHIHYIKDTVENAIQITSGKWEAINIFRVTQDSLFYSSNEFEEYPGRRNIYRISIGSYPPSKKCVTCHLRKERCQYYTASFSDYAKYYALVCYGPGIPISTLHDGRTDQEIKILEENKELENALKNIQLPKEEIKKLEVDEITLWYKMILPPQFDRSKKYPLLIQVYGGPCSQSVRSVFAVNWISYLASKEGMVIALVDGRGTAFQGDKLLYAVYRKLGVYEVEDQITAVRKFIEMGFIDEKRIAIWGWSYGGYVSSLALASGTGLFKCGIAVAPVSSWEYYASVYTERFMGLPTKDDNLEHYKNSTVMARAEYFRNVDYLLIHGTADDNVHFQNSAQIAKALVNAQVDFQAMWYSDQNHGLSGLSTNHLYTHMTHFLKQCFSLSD

B1: P-1901: 2PE14 (VHH)
VHH: QVQLQESGGGLVQPGGSLRLSCAASGSTFSINAVAWYRQAPGKRRELVAGISGGGVTNYPDSVKGRFTISRDNAKNTVYLQMSSLKPEDTAVYYCNLWPPRASPGGRVYWGQGTQVTVSS
notes: also called pET28 PelB-2PE14
B2: P-1919: 2PE14_N32T (VHH)
VHH: QVQLQESGGGLVQPGGSLRLSCAASGSTFSITAVAWYRQAPGKRRELVAGISGGGVTNYPDSVKGRFTISRDNAKNTVYLQMSSLKPEDTAVYYCNLWPPRASPGGRVYWGQGTQVTVSS
notes: also called pET28 PelB-2PE14_N32T
B3: P-1916: 2PE14_N32Q (VHH)
VHH: QVQLQESGGGLVQPGGSLRLSCAASGSTFSIQAVAWYRQAPGKRRELVAGISGGGVTNYPDSVKGRFTISRDNAKNTVYLQMSSLKPEDTAVYYCNLWPPRASPGGRVYWGQGTQVTVSS
notes: also called pET28 PelB-2PE14_N32Q
B4: P-1928: 3PE42_M31G (VHH)
VHH: QVQLQESGGGLVQPGESLRLSCAVSGSTSSGNAMAWYRQAPGKRRELVAGISGGGATNYPDSVKGRFTISRDNAKNTVYLQMSSLKPEDTAVYYCNLWPPRASPGGGVYWGQGTQVTVSS
notes: also called pET28 PelB-3PE42_M42G
B5: P-1903: 2PE14_opt2 (Q1D_Q5V_P60A_A74S_K83R_Q108L) (VHH)
VHH: DVQLVESGGGLVQPGGSLRLSCAASGSTFSINAVAWYRQAPGKRRELVAGISGGGVTNYADSVKGRFTISRDNSKNTVYLQMSSLRPEDTAVYYCNLWPPRASPGGRVYWGQGTLVTVSS
notes: also called pET28 PelB-2PE14_opt2 (idem + P60A)
B6: P-1924: 3PE42_M31A (VHH)
VHH: QVQLQESGGGLVQPGESLRLSCAVSGSTSSANAMAWYRQAPGKRRELVAGISGGGATNYPDSVKGRFTISRDNAKNTVYLQMSSLKPEDTAVYYCNLWPPRASPGGGVYWGQGTQVTVSS
notes: also called pET28 PelB-3PE42_M42A
B7: P-1911: 2PE14_N32H (VHH)
VHH: QVQLQESGGGLVQPGGSLRLSCAASGSTFSIHAVAWYRQAPGKRRELVAGISGGGVTNYPDSVKGRFTISRDNAKNTVYLQMSSLKPEDTAVYYCNLWPPRASPGGRVYWGQGTQVTVSS
notes: also called pET28 PelB-2PE14_N32H
B8: P-1914: 2PE14_N32L (VHH)
VHH: QVQLQESGGGLVQPGGSLRLSCAASGSTFSILAVAWYRQAPGKRRELVAGISGGGVTNYPDSVKGRFTISRDNAKNTVYLQMSSLKPEDTAVYYCNLWPPRASPGGRVYWGQGTQVTVSS
notes: also called pET28 PelB-2PE14_N32L
B9: P-1908: 2PE14_N32E (VHH)
VHH: QVQLQESGGGLVQPGGSLRLSCAASGSTFSIEAVAWYRQAPGKRRELVAGISGGGVTNYPDSVKGRFTISRDNAKNTVYLQMSSLKPEDTAVYYCNLWPPRASPGGRVYWGQGTQVTVSS
notes: also called pET28 PelB-2PE14_N32E
B10: P-1910: 2PE14_N32G (VHH)
VHH: QVQLQESGGGLVQPGGSLRLSCAASGSTFSIGAVAWYRQAPGKRRELVAGISGGGVTNYPDSVKGRFTISRDNAKNTVYLQMSSLKPEDTAVYYCNLWPPRASPGGRVYWGQGTQVTVSS
notes: also called pET28 PelB-2PE14_N32G
B11: P-1929: 3PE42_M31H (VHH)
VHH: QVQLQESGGGLVQPGESLRLSCAVSGSTSSHNAMAWYRQAPGKRRELVAGISGGGATNYPDSVKGRFTISRDNAKNTVYLQMSSLKPEDTAVYYCNLWPPRASPGGGVYWGQGTQVTVSS
notes: also called pET28 PelB-3PE42_M42H
B12: P-1902: 2PE14_opt1 (Q1D_Q5V_A74S_K83R_Q108L) (VHH)
VHH: DVQLVESGGGLVQPGGSLRLSCAASGSTFSINAVAWYRQAPGKRRELVAGISGGGVTNYPDSVKGRFTISRDNSKNTVYLQMSSLRPEDTAVYYCNLWPPRASPGGRVYWGQGTLVTVSS
notes: also called pET28 PelB-2PE14_opt1
B13: P-1920: 2PE14_N32V (VHH)
VHH: QVQLQESGGGLVQPGGSLRLSCAASGSTFSIVAVAWYRQAPGKRRELVAGISGGGVTNYPDSVKGRFTISRDNAKNTVYLQMSSLKPEDTAVYYCNLWPPRASPGGRVYWGQGTQVTVSS
notes: also called pET28 PelB-2PE14_N32V
B14: P-1905: 2PE14_opt4 (Q1D_Q5V_P60A_A74S_S82N_K83R_Q108L) (VHH)
VHH: DVQLVESGGGLVQPGGSLRLSCAASGSTFSINAVAWYRQAPGKRRELVAGISGGGVTNYADSVKGRFTISRDNSKNTVYLQMNSLRPEDTAVYYCNLWPPRASPGGRVYWGQGTLVTVSS
B15: P-1926: 3PE42_M31E (VHH)
VHH: QVQLQESGGGLVQPGESLRLSCAVSGSTSSENAMAWYRQAPGKRRELVAGISGGGATNYPDSVKGRFTISRDNAKNTVYLQMSSLKPEDTAVYYCNLWPPRASPGGGVYWGQGTQVTVSS
notes: also called pET28 PelB-3PE42_M42E
B16: P-1921: 2PE14_N32W (VHH)
VHH: QVQLQESGGGLVQPGGSLRLSCAASGSTFSIWAVAWYRQAPGKRRELVAGISGGGVTNYPDSVKGRFTISRDNAKNTVYLQMSSLKPEDTAVYYCNLWPPRASPGGRVYWGQGTQVTVSS
notes: also called pET28 PelB-2PE14_N32W
B17: P-1922: 2PE14_N32Y (VHH)
VHH: QVQLQESGGGLVQPGGSLRLSCAASGSTFSIYAVAWYRQAPGKRRELVAGISGGGVTNYPDSVKGRFTISRDNAKNTVYLQMSSLKPEDTAVYYCNLWPPRASPGGRVYWGQGTQVTVSS
notes: also called pET28 PelB-2PE14_N32Y
B18: P-1904: 2PE14_opt3 (Q1D_Q5V_A74S_S82N_K83R_Q108L) (VHH)
VHH: DVQLVESGGGLVQPGGSLRLSCAASGSTFSINAVAWYRQAPGKRRELVAGISGGGVTNYPDSVKGRFTISRDNSKNTVYLQMNSLRPEDTAVYYCNLWPPRASPGGRVYWGQGTLVTVSS
notes: also called pET28 PelB-2PE14_opt3 (idem + S82N)
B19: P-1913: 2PE14_N32K (VHH)
VHH: QVQLQESGGGLVQPGGSLRLSCAASGSTFSIKAVAWYRQAPGKRRELVAGISGGGVTNYPDSVKGRFTISRDNAKNTVYLQMSSLKPEDTAVYYCNLWPPRASPGGRVYWGQGTQVTVSS
notes: also called pET28 PelB-2PE14_N32K
B20: P-1915: 2PE14_N32P (VHH)
VHH: QVQLQESGGGLVQPGGSLRLSCAASGSTFSIPAVAWYRQAPGKRRELVAGISGGGVTNYPDSVKGRFTISRDNAKNTVYLQMSSLKPEDTAVYYCNLWPPRASPGGRVYWGQGTQVTVSS
notes: also called pET28 PelB-2PE14_N32P
B21: P-1918: 2PE14_N32S (VHH)
VHH: QVQLQESGGGLVQPGGSLRLSCAASGSTFSISAVAWYRQAPGKRRELVAGISGGGVTNYPDSVKGRFTISRDNAKNTVYLQMSSLKPEDTAVYYCNLWPPRASPGGRVYWGQGTQVTVSS
notes: also called pET28 PelB-2PE14_N32S
B22: P-1906: 2PE14_N32A (VHH)
VHH: QVQLQESGGGLVQPGGSLRLSCAASGSTFSIAAVAWYRQAPGKRRELVAGISGGGVTNYPDSVKGRFTISRDNAKNTVYLQMSSLKPEDTAVYYCNLWPPRASPGGRVYWGQGTQVTVSS
notes: also called pET28 PelB-2PE14_N32A
B23: P-1927: 3PE42_M31F (VHH)
VHH: QVQLQESGGGLVQPGESLRLSCAVSGSTSSFNAMAWYRQAPGKRRELVAGISGGGATNYPDSVKGRFTISRDNAKNTVYLQMSSLKPEDTAVYYCNLWPPRASPGGGVYWGQGTQVTVSS
notes: also called pET28 PelB-3PE42_M42F
B24: P-1907: 2PE14_N32D (VHH)
VHH: QVQLQESGGGLVQPGGSLRLSCAASGSTFSIDAVAWYRQAPGKRRELVAGISGGGVTNYPDSVKGRFTISRDNAKNTVYLQMSSLKPEDTAVYYCNLWPPRASPGGRVYWGQGTQVTVSS
notes: also called pET28 PelB-2PE14_N32D
B25: P-1923: 3PE42 (VHH)
VHH: QVQLQESGGGLVQPGESLRLSCAVSGSTSSMNAMAWYRQAPGKRRELVAGISGGGATNYPDSVKGRFTISRDNAKNTVYLQMSSLKPEDTAVYYCNLWPPRASPGGGVYWGQGTQVTVSS
notes: also called pET28 PelB-3PE42
B26: P-1925: 3PE42_M31D (VHH)
VHH: QVQLQESGGGLVQPGESLRLSCAVSGSTSSDNAMAWYRQAPGKRRELVAGISGGGATNYPDSVKGRFTISRDNAKNTVYLQMSSLKPEDTAVYYCNLWPPRASPGGGVYWGQGTQVTVSS
notes: also called pET28 PelB-3PE42_M42D
B27: P-1912: 2PE14_N32I (VHH)
VHH: QVQLQESGGGLVQPGGSLRLSCAASGSTFSIIAVAWYRQAPGKRRELVAGISGGGVTNYPDSVKGRFTISRDNAKNTVYLQMSSLKPEDTAVYYCNLWPPRASPGGRVYWGQGTQVTVSS
notes: also called pET28 PelB-2PE14_N32I
B28: P-1909: 2PE14_N32F (VHH)
VHH: QVQLQESGGGLVQPGGSLRLSCAASGSTFSIFAVAWYRQAPGKRRELVAGISGGGVTNYPDSVKGRFTISRDNAKNTVYLQMSSLKPEDTAVYYCNLWPPRASPGGRVYWGQGTQVTVSS
notes: also called pET28 PelB-2PE14_N32F
B29: P-1917: 2PE14_N32R (VHH)
VHH: QVQLQESGGGLVQPGGSLRLSCAASGSTFSIRAVAWYRQAPGKRRELVAGISGGGVTNYPDSVKGRFTISRDNAKNTVYLQMSSLKPEDTAVYYCNLWPPRASPGGRVYWGQGTQVTVSS
notes: also called pET28 PelB-2PE14_N32R

The target of the test is T1, recombinant FAP protein (BioLegend), …. Nature of the test: BLI (Octet RED96), biotinylated FAP on streptavidin sensors.
On to B1, for which the Kd was found to be 0.667 nM.
As to B2, the Kd was 4.11 nM.
Turning to B3, the Kd was 0.386 nM.
Consider B4, for which the equilibrium dissociation constant (Kd) worked out at 4.02 nM.
The result for B5 reads 2.26 nM.
B6: the Kd came out at 0.0889 nM.
Consider B7, for which the Kd came to 3.69 nM.
For the molecule B8, the Kd is 1.25 nM.
For B9, the Kd worked out at 1.09 nM.
Take B10: the Kd amounted to 4.62 nM.
The result for B11 reads 1.12 nM; that for B12, 0.0951 nM.
The same measure for B13: 100 nM.
In the case of B14, the Kd stood at 3.76 nM.
B15: the equilibrium dissociation constant (Kd) was 1.85 nM.
The same measure for B16: 0.221 nM; for B17: 14.5 nM.
With B18, the Kd was 0.653 nM.
With B19, the Kd came out at 2.67 nM.
On to B20, for which the Kd amounted to 1.17 nM.
Take B21: the Kd came out at 556 nM.
As to B22, the Kd is 3.56 nM.
For B23, the dissociation constant (Kd) came to 1.17 nM.
Take B24: the Kd amounted to 10.8 nM.
As to B25, the Kd was 0.588 nM.
Regarding B26, the Kd was 0.165 nM.
As to B27, the Kd worked out at 16.8 nM.
Regarding B28, the Kd stood at 0.468 nM.
As to B29, the Kd amounted to 0.317 nM.

The values above are taken from patent US20220332844A1 (ORIONIS BIOSCIENCES, published 2022).
